This note sets out measurements from the supplement of paper PMC12042874.

± gives the uncertainty stated by the source.

The data set is described as follows: amyloid nucleation score (Sup35N fusion, yeast selection) (log enrichment); library NNK1; higher = more nucleation; inactive = no reads after selection. The procedure, abridged:
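After 24 hours of induction with 100 μM copper sulfate, psi-negative yeast expressing peptides of 20 random codons fused to Sup35N were grown for 7 days at 30°C on medium lacking adenine and uracil. Input and output plasmid inserts were sequenced with Illumina, and sequences with under 100 input reads were discarded. Scores for nucleation are the DiMSum log enrichment of output over input reads, centred on the mode score of non-aggregating sequences.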
For TTGSALTETATDQVGWNYSL, the amyloid nucleation score came to 0.265 ± 0.41.
Substance GTTFIRLIYFVYMARTTTEF returned an amyloid nucleation score of -1.35 ± 1.1.
As to SKCNFVHSRLGIALQYETRL, the amyloid nucleation score amounted to 3.56 ± 0.1.
As for VKLSYGWVLSGAELTEYVTM, the amyloid nucleation score is -0.782 ± 0.54.
The result for PQEFLFHTDQRSGCVITETS reads 0.179 ± 0.57; that for MSDCPACGCSCHRSKLISGF, -0.414 ± 0.5; that for ELDNCARLGADCKGLNAGRS, “inactive”.
With MIAFYIVLLPVIRGYRSGCK the entry was “inactive”.
The result for KHCRVSPNVSECAFKGAMCL reads 1.17 ± 0.63.
Regarding WIGGVKG, the amyloid nucleation score was -0.427 ± 0.72.
WKASFIRFWFVAIMFMYNLC returned an amyloid nucleation score of -0.1 ± 0.42.
The result for DTLVDVVFDADVV reads 0.26 ± 0.28; that for MWVFKTFCRRQRASVPNSLG, 0.034 ± 0.27; that for KVSYCSSGYLTSLTWRFLLI, 0.888 ± 0.28.
On to SRLWVFD, for which the amyloid nucleation score is 0.314 ± 0.79.
As for NFGLRRYSNARMGMDCGWLC, the amyloid nucleation score was -0.011 ± 0.45.
The result for SSTSSRCHTSANLVRLVNGR reads 0.714 ± 0.33; that for NRMLSSKQAPSQNFQ, 0.814 ± 0.46; that for NWSRPSSNLGGGPSSAVREG, 0.764 ± 0.52.
With TRLCFGFWAKIEWMRSVSGV the figure was 0.082 ± 0.64; with VWCRFERDTISKLCASWGRR, -0.237 ± 1.9.
Regarding RIANQ, the amyloid nucleation score is -0.086 ± 0.51.
The result for FGSQVFTDGHMCMQSGGTWC reads 0.223 ± 0.34.
With GNFMNRCAFRRMGYSTISIN the figure was 1.35 ± 0.47; with GLCFDARLLEL, -1.87 ± 2.7.
As for NSDSIGIRVFDV, the amyloid nucleation score turned out to be 0.242 ± 0.99.
The result for VGESHCLNADLVSYQHN reads -0.374 ± 0.6; that for HHIDPHDSFIS, 0.711 ± 0.93.
The result for SVFRSSVCLLANDGVFSMNV reads 0.355 ± 0.39; that for VCVSIGWFCCSGCCLAQRLW, 7.2 ± 0.065.
The result for RDVTCRLYLMLWS reads -0.641 ± 1.5.
In the case of RSRVLRMLFPAGEDYQLHMV, the amyloid nucleation score stood at 0.8 ± 0.65.
RRTRKGWIMWPGGVDNHGNY had an amyloid nucleation score of -0.313 ± 1.3.
CNQMSFFTEALVNKLHLFFT: the amyloid nucleation score result is “inactive”.
NIGMVRFFLGAN yielded an amyloid nucleation score of -0.71 ± 0.61.
Consider LLVGKMCRWNMSYVG, for which the amyloid nucleation score was -0.063 ± 0.28.
For LGIARDSWGKIKQFSAVDSC, the amyloid nucleation score was found to be 0.159 ± 0.26.
The result for MRFKRRSGFGELGMFAFTPL reads -0.628 ± 0.5; that for PYAWSVNC, -0.579 ± 0.4.
Substance CMHFVYNIKVRIIPDEYDHS displayed an amyloid nucleation score of 4.6 ± 0.091.
The result for LTMPMKHLRGSPDLRVNGII reads -0.502 ± 0.85.
The substance VLTVRLTMLDCHLAAFSSNA gave an amyloid nucleation score of 1.66 ± 0.16.
Regarding TVYLSNCERIYMQWVREFVS, the amyloid nucleation score was found to be 2.68 ± 0.14.
KLYGLVFFLVYGNDGSKRDL: the amyloid nucleation score was determined as 0.779 ± 0.36.
Consider FVVSDRGWTQALRHYPDTRM, for which the amyloid nucleation score is -0.25 ± 0.34.
With SLFLMIVVYHVHVRALYILV the figure was 0.531 ± 0.93; with IMVANVSPSQKFNG, 0.346 ± 0.4; with HNIAIAPARWCVSSIRSG, -0.53 ± 0.45.
SGVICWYQKLAGINDALRWA: the amyloid nucleation score came out at 1.21 ± 0.25.
With SIMGVDRLVVVWYGFDRCGF the figure was 1.31 ± 0.66.
With FSMWRSWNNNYSLISHSTGH, the amyloid nucleation score stood at 0.367 ± 1.2.
Turning to LAAST, the amyloid nucleation score is 0.311 ± 0.4.
The result for RAELTSTTISTASVFGCGIM reads 5.17 ± 0.07; that for MLKILNSSFFDTIVYAYITC, 3.6 ± 0.081.
For the substance AYAILMRKMVIHADLLARC, the amyloid nucleation score was -0.006 ± 0.7.
MNFDNGDFYWFVTRIISITC gave an amyloid nucleation score of 0.99 ± 0.19.
